{"source": "the nanobody polyreactivity screen of Harvey et al. (2022)", "data": [{"assay": "yeast display, Sf9 membrane polyspecificity reagent, FACS + sequencing; frameworks hold sequencing errors", "in_short": "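Genes from sorted yeast were amplified by colony PCR, read by MiSeq 2 × 250 sequencing and filtered on CDR length. These cells carried a synthetic nanobody library in Saccharomyces cerevisiae BJ5465 and were sorted by FACS into low and high (top ~1%) gates on anti-HA and streptavidin fluorescence. Polyreactivity is labelled according to the gate of origin.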", "values": [{"sequence": "QVQLVESGGGLVQAGGSLRLSCAASGLIFKNNAMGWYRQAPGKERELVAAIDSIGGSTYYADSVKGRFTISRDNAKNTVYLQMNSLKPEDTAVYYCATDYYFYPHSQYDYWGQGTQVTVSS", "polyreactivity (PSR sort gate)": "low polyreactivity"}, {"sequence": "QVQLVESGGGLVQAGGSLRLSCAASGLIFKSNAMGWYRQAPGKERELVAAITRTGGSTYYADSVKGRFTISRDNAKNTVYLQMNSLKPEDTAVYYCAKVVGRWRSSWELDYWGQGTQVTVSS", "polyreactivity (PSR sort gate)": "high polyreactivity"}, {"sequence": "QVQLVESGGGLVQAGGSLRLSCAASGLIFKSYVMGWYRQSPGKERELVAGITGSGGTTYYADSVKGRFTISRDNAKNTVYLQMNSLKPEDTAVYYCAAVFETGAGGFYYTLQYDSWGQGTQVTVSS", "polyreactivity (PSR sort gate)": "high polyreactivity"}, {"sequence": "QVQLVESGGGLVQAGGSLRLSCAASGLIFKYYALGWYRQAPGKERELVAAMSWSGGSTYYADSVKGRFTISRDTAKNTVYLQMNSLKPEDTAVYYCAADSWIYSYSALSIYDYWGQGTQVTVSS", "polyreactivity (PSR sort gate)": "high polyreactivity"}, {"sequence": "QVQLVESGGGLVQAGGSLRLSCAASGLIFLDYAMGWYRQAPGKERELVAAISSSGGRTYYADSVKGRFTISRDNAKNTVYLQMNSLKPEDTAVYYCATGPNSYDYWGQGTQVTVSS", "polyreactivity (PSR sort gate)": "high polyreactivity"}, {"sequence": "QVQLVESGGGLVQAGGSLRLSCAASGLIFLHNAMGWYRQAPGKERELVAAIRDGDSTNYADSVKGRFTISRDNAKNTVYLQMNSLKPEDTAVYYCAKDPTLVAYAPGRYDYWGQGTQVTVSS", "polyreactivity (PSR sort gate)": "low polyreactivity"}, {"sequence": "QVQLVESGGGLVQAGGSLRLSCAASGLIFLRNSMGLDRTAPGKERELVAAISRSGGSTYYADSVKGRFTISRDSAKYSGYLQMNSLKPVDTAVYYCAKYGYGGVIPGPDHFDYWVQGTQVTVSS", "polyreactivity (PSR sort gate)": "high polyreactivity"}, {"sequence": "QVQLVESGGGLVQAGGSLRLSCAASGLIFLSYGMGWYRQAPGKERELVAAISSGGSTYYADSVKGRFTISRDNAKNTVYLQMNSLKPEDTAVYYCAAEQPIEFDHWGQGTQVTVSS", "polyreactivity (PSR sort gate)": "low polyreactivity"}, {"sequence": "QVQLVESGGGLVQAGGSLRLSCAASGLIFLYNAMGWYRQAPGKERELVAAISSGGGRTYYADSVKGRFTISRDNAKNTVYLQMNSLKPEDTAVYYCNVASYAKKRWTMDYWGQGTQVTVSS", "polyreactivity (PSR sort gate)": "high polyreactivity"}, {"sequence": "QVQLVESGGGLVQAGGSLRLSCAASGLIFLYYVMAWYRQAPGKERELVAGISRSGGRTNYADSVKGRFTISRDNAKNTVYLQMNSLKPEDTAVYYCAALLSIGQPKPTWYYYWGQGTQVTVSS", "polyreactivity (PSR sort gate)": "high polyreactivity"}, {"sequence": "QVQLVESGGGLVQAGGSLRLSCAASGLIFNKYAMGWYRQAPGKERELVATIRRDGSTNYADSVKGRFTISRDNAKITVYLQLNILKPEDTAVYYCAADSYYTRDDYWGQGTQVTVSS", "polyreactivity (PSR sort gate)": "high polyreactivity"}, {"sequence": "QVQLVESGGGLVQAGGSLRLSCAASGLIFNTYAMGWYRQARGKERELVAAITDGGGTNYADSVKGRFTISRDNAKNTVYLQMNSLKPEDTAVYYCAARLASWPLTYDFQWYEYWGQGTQVTVSS", "polyreactivity (PSR sort gate)": "low polyreactivity"}, {"sequence": "QVQLVESGGGLVQAGGSLRLSCAASGLIFPGYAMGWYRQAPGKERELVAAIDWSGGSTYYADSVKGRFTISRDYAKNTVYLQMNSLKPEDTAVYDCNADGYLSYAFDYWGQGTQVTVSS", "polyreactivity (PSR sort gate)": "low polyreactivity"}, {"sequence": "QVQLVESGGGLVQAGGSLRLSCAASGLIFPRYAMGWYRQAPGKETELVAAISRSGGNTYYADSVKGRFTISRDNAKNTVYLQINRLKPEDTAVYYCAAYLKVRSPRDGYDYWGQGTQVSVSS", "polyreactivity (PSR sort gate)": "high polyreactivity"}, {"sequence": "QVQLVESGGGLVQAGGSLRLSCAASGLIFPSYAMGWYRQAPGKERELVAGINSGGSTNYADSVKGRFTISRDNAKNTVYLQMNSLKPEDTAVYYCAKDNNYYWYVSPRDYWGQGTQVTVSS", "polyreactivity (PSR sort gate)": "low polyreactivity"}, {"sequence": "QVQLVESGGGLVQAGGSLRLSCAASGLIFPSYTMGSYRQAPGKERELVAAITFSGDSTNYADSVKGRFTISRDNAKNTVYLQMNSLKPEDTAVYYCAAETITYGFDGDYWGQGTQVTVSS", "polyreactivity (PSR sort gate)": "low polyreactivity"}, {"sequence": "QVQLVESGGGLVQAGGSLRLSCAASGLIFQYYAMGWYRPAPGKERELVAAISSDGNTYYADSVKGRFTISRDNAKNTVYLQMNSLKPEDTAVYYCAADWYIAYSEYGYWGQGTKVTVSS", "polyreactivity (PSR sort gate)": "low polyreactivity"}]}]}
